{"source": "patent US10444224B2", "about": "“Method for RNA detection and quantification” (Cornell University, priority 2011, dated 2019)", "molecules": {"B1": {"name": "24-2: RNA aptamer clone from SELEX that switches on DFHBI fluorescence (nucleic acid)", "chain": "GGGAGACGCAACUGAAUGAAAUGGUGAAGGACGGGUCCAGGUGUGGCUGCUUCGGCAGUGCAGCUUGUUGAGUAGAGUGUGAGCUCCGUAACUAGUCGCGUCAC", "modifications": "listed as RNA, chemistry not given here", "notes": "RNA aptamer clone from SELEX that switches on DFHBI fluorescence"}, "B2": {"name": "SEQ ID NO: 8: derivative (minimized) Spinach sequence containing a shortened stem-loop 2 (nucleic acid)", "chain": "GACGCGACUGAAUGAAAUGGUGAAGGACGGGUCCAGCUGCUUCGGCAGCUUGUUGAGUAGAGUGUGAGCUCCGUAACUAGUCGCGUC", "modifications": "listed as RNA, chemistry not given here"}, "B3": {"name": "SEQ ID NO: 9: Spinach derivative with a replacement stem-loop at stem-loop 2 (nucleic acid)", "chain": "B2 chain with C37G, U38C, G39A, U41G, U42A, C43A, G44A, C46U, A47G, G48C", "modifications": "listed as RNA, chemistry not given here"}, "B4": {"name": "guanine sensor: Spinach-based turn-on RNA sensor for guanine (nucleic acid)", "chain": "GACGCGACUGAAUGAAAUGGUGAAGGACGGGUCCAGAUAAUCGCGUGGAUAUGGCACGCAAGUUUCUACCGGGCACCGUAAAUGUCCGACUCUUGUUGAGUAGAGUGUGAGCUCCGUAACUAGUCGCGUC", "modifications": "chemistry not given here"}}, "key": {"[1]": {"test_system": "HEK293T cells expressing 5S-Spinach", "assay": "Live mammalian cell imaging of Spinach-tagged 5S RNA", "assay_type": "cell-based, human", "procedure": "HEK293 cells cultured on 24-well glass-bottom dishes were transfected with 0.2 μg of pAV-5S construct expressing full length human 5S RNA from its endogenous promoter fused through its 3′ end with either a control sequence (lambda fragment ˜400 nt) or the Spinach aptamer sequence using FuGene 6 (Roche) per manufacturer's instructions. Imaging experiments were performed 48 hours after transfection. Thirty minutes prior to experiment, HEK293 cell media was replaced with imaging media (DMEM with no phenol red or vitamins and supplemented with 25 mM HEPES, 5 mM MgSO4, and 10 μg/ml Hoechst 33342) and 20 μM DFHBI or vehicle were added to the cells to promote RNA-fluorophore complex formation. To induce stress granule formation, cells were treated with 100 mM MgSO4 or 600 mM sucrose for 30 minutes prior to imaging. Live fluorescence images of HEK293 cells were taken with a CoolSnap HQ2 CCD camera through a 100× oil objective mounted on a Nikon TE2000 microscope and analyzed with the NIS-Elements software. A filter cube typically used for fluorescein/EGFP with sputter coated excitation filter 470/40, dichroic mirror 495 (long pass), and emission filter 525/50 (Chroma Technology) was used to detect Spinach."}, "[2]": {"conditions": "literature value used as reference; cited from earlier work"}, "[3]": {"assay": "Tolerance of Spinach stem-loop 2 to mutation, assayed by DFHBI fluorescence", "assay_type": "biochemical", "procedure": "Secondary structure prediction was performed using Mfold online software. Mutated and truncated RNAs were created by ordering single stranded DNA templates (Integrated DNA Technologies) with the desired mutations or truncations and PCR amplifying these sequences to create double stranded DNA templates using primers which included a 5′ T7 promoter sequence. PCR products were then purified with PCR purification columns (Qiagen) and used as templates for in vitro T7 transcription reactions (Epicentre).\nTo determine if stem-loop 2 primarily has a structural role in Spinach, mutations were introduced at the stem-loop 2 positions shown in FIG. 11A to test the tolerance of Spinach to mutations at these positions. This was assayed by DFHBI fluorescence. In these experiments, the minimized Spinach structure (SEQ ID NO: 8) in which stem-loop 2 is predicted to sit adjacent to the large internal loop (FIG. 11A). […] To determine if stem-loop 2 can be swapped with a different stem-loop with similar stability without perturbing Spinach-induced DFHBI fluorescence, the UUCG loop sequence was replaced with GAAA and the 4-base pair stem was replaced with a different but still complementary 4-base pair stem (FIG. 11A, SEQ ID NO: 9). […] However, when mismatched bases were inserted in the stem region to prevent the formation of a duplex, DFHBI fluorescence was lost (FIG. 11B)."}, "[4]": {"assay": "Excitation and emission spectra of the 24-2-DFHBI complex", "assay_type": "physicochemical", "conditions": "24-2 bound to DFHBI", "excerpt": "Unless otherwise stated, all chemistry reagents were purchased from Acros Organics and all cell culture reagents were purchased from Invitrogen. Commercially available starting reagents were used without further purification. DFHBI was synthesized as described in PCT Application Publ. No. WO/2010/096584 to Jaffrey and Paige; Paige and Jaffrey, “RNA Mimics of Green Fluorescent Protein,” Science 333(6042):642-646 (2011), each of which is hereby incorporated by reference in its entirety. Flash chromatography was conducted with 200-400 mesh silica gel 60 (EMD) and with ACS or HPLC grade solvents (Fisher). NMR spectra were recorded on a Bruker DMX-500 spectrometer at 500 MHz. Chemical shifts were reported as parts per million (ppm) downfield from an internal tetramethylsilane standard ([…] for ^1H NMR) or from solvent references. […] UPLC was performed at a flow rate of 0.5 ml/min (monitored with a PDA from 210-500 nm) using a Waters C18 column. Absorbance spectra were recorded with a Thermo Scientific NanoDrop 2000 spectrophotometer with cuvette capability. Fluorescence excitation and emission spectra were measured with a Perkin Elmer LS-55 fluorescence spectrometer.\nAfter eight rounds of SELEX at pH 8.0 using DFHBI-agarose, clones were identified that switched on DFHBI fluorescence. […]"}, "[5]": {"assay": "Magnesium dependence of 24-2-DFHBI fluorescence", "assay_type": "biochemical", "excerpt": "FIGS. 3A-C illustrate the secondary structures of three RNAs: the original 24-2 structure (3A, SEQ ID NO: 5), a minimized structure 24-2-min (3B, SEQ ID NO: 7), and a first generation derivative of 24-2, designated “Spinach” (3C, SEQ ID NO: 6). RNA structure is shown as predicted by Mfold web-based software (Zuker, “Mfold Web Server for Nucleic Acid Folding and Hybridization Prediction,” Nucl. Acids Res. 31(13): 3406-3415 (2003), which is hereby incorporated by reference in its entirety). In FIG. 3A, bases that could be removed without significant loss in fluorescence are indicated in purple, which includes several bases from the largest loop and largest stem. A-U, G-U and any mismatched base pairs were mutated to G-C base pairs and tested for their effect on 24-2 fluorescence. G-C mutations that reduced 24-2 fluorescence are indicated in red, those which had no effect are indicated by asterisk (*), and those which increased the fluorescence of 24-2 are indicated in green. Base substitutions indicated by an asterisk (*) helped to validate structural predictions because substituting one base pair for another (e.g. A-U for G-C) had negligible effect or increased fluorescence. […] FIG. 3D illustrates the magnesium dependence of 24-2-DFHBI fluorescence. The fluorescence of the 24-2-DFHBI complex was measured at pH 7.4 in the presence of increasing magnesium concentrations. […]"}, "[6]": {"assay": "Spinach-based RNA sensor fluorescence in response to guanine", "assay_type": "biochemical"}}, "note": "Numbering of substitutions follows the chain as printed. Entries after “also recorded” stand apart in the source; their conditions may differ.", "data": [{"molecule": "Cc1c(-c2cc(NS(=O)(=O)c3ccccc3Cl)n(C)n2)sc2ccc(Cl)cc12", "note": "[ML-60218]", "values": [{"measurement": "effect on 5S-Spinach fluorescence", "setting": "[1]; Pol III inhibitor treatment", "value": "reduces 5S-Spinach fluorescence to baseline levels"}]}, {"molecule": "Cc1cc2cc3cc(C)c(N)cc3nc2cc1N", "note": "[acridine yellow]", "values": [{"measurement": "absolute quantum yield of reference fluorophore", "setting": "[2]", "value": 0.47}]}, {"molecule": "CCC(=C/[C@H](C)C/C=C/C(C)=C/[C@@H](C)C(=O)[C@@H](C)[C@H](O)[C@@H](C)C/C(C)=C/C(=O)O)/C=C/[C@@H]1OC(=O)C=C[C@@H]1C", "note": "[leptomycin B]", "values": [{"measurement": "effect on 5S-Spinach localization", "setting": "[1]; after washout of ML-60218", "value": "5S-Spinach accumulates in the nucleus"}]}, {"molecule": "SEQ ID NO: 16: mismatch stem-loop structure introduced into Spinach; three mismatched nucleotides prevent duplex formation (AUGCUUCGGACG; listed as RNA, chemistry not given here)", "values": [{"measurement": "DFHBI fluorescence of stem-loop 2 variant relative to Spinach / original stem-loop 2", "setting": "[3]", "value": "reduces fluorescence intensity to baseline"}]}, {"molecule": "lucifer yellow", "values": [{"measurement": "absolute quantum yield of reference fluorophore", "setting": "[2]", "value": 0.21}]}, {"molecule": "B1", "values": [{"measurement": "emission peak", "setting": "[4]", "value": 501, "unit": "nm"}, {"measurement": "excitation peak", "setting": "[4]", "value": 469, "unit": "nm"}, {"measurement": "fraction of maximal fluorescence", "setting": "[5]; 0.1 mM magnesium", "value": "greater than 50%"}, {"measurement": "magnesium concentration at maximal fluorescence", "setting": "[5]; pH 7.4", "value": 3, "unit": "mM"}]}, {"molecule": "B2", "values": [{"measurement": "DFHBI fluorescence of stem-loop 2 variant relative to Spinach / original stem-loop 2", "setting": "[3]", "value": "essentially identical fluorescence"}]}, {"molecule": "B3", "values": [{"measurement": "DFHBI fluorescence of stem-loop 2 variant relative to Spinach / original stem-loop 2", "setting": "[3]", "value": "did not reduce DFHBI fluorescence; also recorded: nearly identical fluorescence intensities"}]}, {"molecule": "B4", "values": [{"measurement": "increase in fluorescence in the presence of guanine", "setting": "[6]; 0.1 μM RNA, 10 μM DFHBI, 100 μM Gua, versus no guanine", "value": 32, "unit": "fold"}, {"measurement": "EC50", "setting": "[6]; dose-response, 10 μM fluorophore, read-out: half-maximal fluorescence (EC50), guanine", "value": 1500, "unit": "nM"}]}]}
